From article PMC9579160

How the values were obtained:
[1] = target: His-tag-fused PHR domain of CraCRY (M1-A489) (C. reinhardtii); assay: SEC; lit (blue light); inline SEC of the SAXS runs, Superdex 200, 50 mM HEPES pH 7.4, 150 mM NaCl, 5% glycerol, 25 °C, 2 to 10 mg/mL
[2] = target: His-tag-fused full-length wild-type CraCRY (C. reinhardtii animal-like cryptochrome) (C. reinhardtii); assay: as above
[3] = target: Strep-tag-fused CraCRY::mCitrine (C. reinhardtii); assay: single-molecule pull-down (TIRF colocalisation with photobleaching step counting); lit (blue light, 450 nm): Strep-tag-fused CraCRY::mCitrine tethered to the glass slide by streptavidin as bait, ROC15(GARP)::mCherry as prey
[4] = target: Strep-tag-fused CraCRY::mCitrine (C. reinhardtii); assay: single-molecule photobleaching step counting; lit (blue light): photobleaching steps of CraCRY::mCitrine protein complexes counted by TIRF microscopy
[5] = target: Strep-tag-fused CraCRY::mCitrine (C. reinhardtii); assay: single-molecule pull-down (TIRF colocalisation with photobleaching step counting); lit (blue light, 450 nm): Strep-tag-fused CraCRY::mCitrine tethered to the glass slide by streptavidin as bait, ROC15(GARP)::mCherry as prey; remark: listed apart in the source

## His-tag-fused PHR domain of CraCRY (M1-A489) (domain or fragment)
[1]
  stoichiometry N: 2

## His-tag-fused full-length wild-type CraCRY (C. reinhardtii animal-like cryptochrome) (natural protein)
[2]
  stoichiometry N: 2

## Strep-tag-fused CraCRY::mCitrine (natural protein)
[3]
  dimer fraction without colocalized ROC15: 15.5%
[4]
  population of two-step bleaching: 25.1%

B1: ROC15(GARP)::mCherry (domain or fragment)
chain: MGEEYADDGTTRAVKRPRLVWTPQLHRKFESAVIKLGEDKAVPKTIMQEMNIDGLTRENVASHLQKYRM
[5]
  fraction of interacting CraCRY (colocalization): 23.3%
  percentage of interaction between ROC15 and CraCRY monomers: 25.1%
